How the values were obtained:
[1] = Skin penetrability of growth factor fusion proteins (Franz glass cell, ELISA); assay type: in vitro ADME, porcine; conditions: for Penetrated amount (%): 2 μg, 16 hours
Procedure: (§1) Specifically, porcine skin (thickness: 0.7 mm, Medikinetics) was placed between upper and lower ends of Franz glass cell (standard diameter: 9 mm, Receiver 5 mL, Permegear), and TBS (50 mM Tris pH 7.5, 150 mM NaCl) including 1% BSA and 0.01% Tween 20 was prepared. Then, 500 μL of the TBS was applied to the upper end of the glass cell (Donor chamber), and 5 mL of the TBS was applied to the lower end of the glass cell, (Receiver chamber). Subsequently, 2 μg of PDGFa or T-PDGFa was applied to the upper end of the glass cell, followed by reaction for 16 hours. Then, a concentration of PDGFa or T-PDGFa was quantitatively analyzed using the ELISA kit (R&D Systems), and a relative amount of T-PDGFa to PDGFa was calculated as a penetrated amount (Table 7).
Specifically, porcine skin (thickness: 0.7 mm, Medikinetics) was placed between upper and lower ends of Franz glass cell (standard diameter: 9 mm, Receiver 5 mL, Permegear), and TBS (50 mM Tris pH 7.5, 150 mM NaCl) including 1% BSA and 0.01% Tween 20 was prepared. Then, 500 μL of the TBS was applied to the upper end of the glass cell (Donor chamber), and 5 mL of the TBS was applied to the lower end of the glass cell, (Receiver chamber).
as §1, with “IGF-1” for “PDGFa”, “T-IGF-1” for “T-PDGFa”, “16).” for “7).”
as §1, with “KGF” for “PDGFa”, “T-KGF” for “T-PDGFa”, “20).” for “7).”
as §1, with “Tβ4” for “PDGFa”, “T-Tβ4” for “T-PDGFa”, “24).” for “7).”

dermal papilla cells = experiment: Hair follicle stem cell proliferation: dermal papilla cells, Cell Counter Kit-8; assay type: cell-based; conditions: for Proliferation (%): control = 100
Procedure: (§2) Specifically, dermal papilla cells were inoculated onto a 96-well plate and cultured for 24 hours to obtain cultures at a density of 6,000 cells per well. The cultures were washed with PBS and cultured in a serum-free DMEM medium for one day. The cells were washed with PBS again and cultured in a serum-free DMEM medium supplemented with 1 ng/mL T-PDGFa or PDGFa for one day. The cultures were obtained therefrom and a difference between proliferated amounts of cells was quantitively analyzed using the Cell Counter Kit-8 (Dojindo). Here, dermal papilla cells cultured in a serum-free DMEM medium without T-PDGFa or PDGFa were used as a control (Table 6).
Specifically, dermal papilla cells were inoculated onto a 96-well plate and cultured for 24 hours to obtain cultures at a density of 6,000 cells per well. The cultures were washed with PBS and cultured in a serum-free DMEM medium for one day. […] The cultures were obtained therefrom and a difference between proliferated amounts of cells was quantitively analyzed using the Cell Counter Kit-8 (Dojindo).
as §2, with “T-IGF-1” for “T-PDGFa”, “IGF-1” for “PDGFa”, “15).” for “6).”
as §2, with “10” for “1”, “T-KGF” for “T-PDGFa”, “KGF” for “PDGFa”, “19).” for “6).”
as §2, with “10” for “1”, “T-Tβ4” for “T-PDGFa”, “Tβ4” for “PDGFa”, “23).” for “6).”

For “Tβ4: thymosin beta 4 having an amino acid sequence of SEQ ID NO: 47”, the “Penetrated amount (%)” value ([1]; relative to Tβ4) was 100 ± 21% and the “Proliferation (%)” value (dermal papilla cells; 10 ng/mL T-Tβ4 or Tβ4, one day) was 260 ± 20%.

In the case of “T-Tβ4: SEQ ID NO: 1 peptide C-terminal linked to N-terminal of Tβ4 via GG linker (NGSLNTHLAPILGGSDKPDMAEIEKFDKSKLKKTETQEKNPLPSKETIEQEKQAGES; Synthetic Fusion protein of T-T beta 4)”, the “Penetrated amount (%)” value ([1]; relative to Tβ4) is reported as 310 ± 28%, the “skin penetrability compared with the unfused protein” value ([1]; summary of Tables 7, 12, 16, 20, 24) is reported as “about three times higher” and the “Proliferation (%)” value (dermal papilla cells; 10 ng/mL T-Tβ4 or Tβ4, one day) is reported as 220 ± 16%. For the same substance, the “cell proliferation effect compared with the unfused protein” value (dermal papilla cells; dermal papilla cells) was “same level”.

For “IGF-1: insulin-like growth factor-1 having an amino acid sequence of SEQ ID NO: 41”, the “Penetrated amount (%)” value ([1]; relative to IGF-1) was 100 ± 14% and the “Proliferation (%)” value (dermal papilla cells; 1 ng/mL T-IGF-1 or IGF-1, one day) was 440 ± 45%.

In the case of “PDGFa: platelet-derived growth factor subunit a having an amino acid sequence of SEQ ID NO: 35”, the “Penetrated amount (%)” value ([1]; relative to PDGFa) is reported as 100 ± 29% and the “Proliferation (%)” value (dermal papilla cells; 1 ng/mL T-PDGFa or PDGFa, one day) is reported as 1030 ± 19%.

Source: US20200165312A1, “COSMETIC COMPOSITION FOR IMPROVING SKIN CONDITIONS COMPRISING FUSION PROTEIN INCLUDING SKIN PENETRATION ENHANCING PEPTIDE” (LG HOUSEHOLD & HEALTH CARE LTD., priority 2017, published 2020)
